In paper PMC8061694, “Ectopic positioning of the cell division plane is associated with single amino acid substitutions in the FtsZ-recruiting SsgB in Streptomyces” (Open Biology, 2021):

B1: Streptomyces coelicolor FtsZ, C-terminal His-tag fusion (natural protein, UniProt P45500 1-399, looked up)
chain: MAAPQNYLAVIKVIGVGGGGVNAINRMIEVGLKGVEFIAINTDAQALLMSDADVKLDVGRELTRGLGAGANPAVGRKAAEDHREEIEEVLKGADMVFVTAGEGGGTGTGGAPVVANIARSLGALTIGVVTRPFTFEGRRRANQAEDGIAELREEVDTLIVIPNDRLLSISDRQVSVLDAFKSADQVLLSGVQGITDLITTPGLINLDFADVKSVMSEAGSALMGIGSARGDDRAVAAAEMAISSPLLEASIDGARGVLLSISGGSDLGLFEINEAAQLVSEAAHPEANIIFGAVIDDALGDEVRVTVIAAGFDGGQPPSKRDNVLGSSSAKREEPTPARPSESRPSFGSLGSVKPKEEPEPAPVPEPVADLPVSPPPVPPSRTYSDSAAEELDVPDFLK
notes: FtsZ of Streptomyces coelicolor, codon-optimised ftsZ cloned into pET28a; Forms polymers with GTP; source: E. coli Rosetta 2 (DE3) pLysS, purified

Columns and labels:
[1] = target: the molecule itself; assay: co-sedimentation; co-pelleting assay: purified FtsZ with or without equimolar SsgB or its mutants, 15 µM final; pre-spun 50 k r.p.m. 30 min; 2 mM MgCl2 and GTP added, 10 min at 30°C; centrifuged 65 k r.p.m. at 20°C for 30 min; supernatants and pellets on SDS-PAGE
[2] = target: Streptomyces coelicolor SsgB, wild type, His6-tagged (Streptomyces coelicolor) (UniProt Q9L268); assay: crystal structure; tetragonal crystals, sitting-drop vapour diffusion at 18°C; 0.2 M sodium chloride, 0.1 M sodium/potassium phosphate pH 6.2, 50% PEG200; 2.1 Å; eight molecules per asymmetric unit
[3] = target: B1; assay: co-sedimentation; co-pelleting assay: purified FtsZ with or without equimolar SsgB or its mutants, 15 µM final; pre-spun 50 k r.p.m. 30 min; 2 mM MgCl2 and GTP added, 10 min at 30°C; centrifuged 65 k r.p.m. at 20°C for 30 min; supernatants and pellets on SDS-PAGE; conditions: both partners purified

| Binder | binding result [1] | stoichiometry N [2] | binding result [3] |
| --- | --- | --- | --- |
| B1 | binds | – | – |
| Streptomyces coelicolor SsgB, wild type, His6-tagged (natural protein, UniProt Q9L268 1-137, looked up, SsgB of Streptomyces coelicolor, entire coding region, 137 aa native polypeptide; expressed from pET28a as a 157 aa fusion protein; Trimer in the crystal, mainly monomer by SEC; The last 13 residues are not modelled in the structure; also called ScSsgB; wild-type SsgB; source: E. coli Rosetta 2 (DE3) pLysS, purified) MNTTVSCELHLRLVVSSESSLPVPAGLRYDTADPYAVHATFHTGAEETVEWVFARDLLAEGLHRPTGTGDVRVWPSRSHGQGVVCIALSSPEGEALLEAPARALESFLKRTDAAVPPGTEHRHFDLDQELSHILAES | – | 3 | binds |
| SsgB E120A, His6-tagged (natural protein, Streptomyces coelicolor, UniProt Q9L268 1-137, looked up, SsgB of Streptomyces coelicolor, entire coding region (137 aa), point mutant E120A, expressed in the same way as wild type; also called SsgB variant E120A; source: E. coli Rosetta 2 (DE3) pLysS, purified) MNTTVSCELHLRLVVSSESSLPVPAGLRYDTADPYAVHATFHTGAEETVEWVFARDLLAEGLHRPTGTGDVRVWPSRSHGQGVVCIALSSPEGEALLEAPARALESFLKRTDAAVPPGTAHRHFDLDQELSHILAES | – | – | binds |
| SsgB-E120G, His6-tagged (natural protein, Streptomyces coelicolor, UniProt Q9L268 1-137, looked up, SsgB of Streptomyces coelicolor, entire coding region (137 aa), point mutant E120G, expressed in the same way as wild type; also called SsgB variant E120G; source: E. coli Rosetta 2 (DE3) pLysS, purified) MNTTVSCELHLRLVVSSESSLPVPAGLRYDTADPYAVHATFHTGAEETVEWVFARDLLAEGLHRPTGTGDVRVWPSRSHGQGVVCIALSSPEGEALLEAPARALESFLKRTDAAVPPGTGHRHFDLDQELSHILAES | – | – | binds |
